Legend:
[1] = target: HSV-1 gB730 (HSV-1 glycoprotein B ectodomain) (HSV-1) (UniProt P06437); test: SEC-MALS
[2] = target: the molecule itself; test: mildly denaturing SDS-PAGE
[3] = target: the molecule itself; test: SEC-MALS

Question: Which stoichiometry N [1] does the source give for “HSV-1 gB730 (HSV-1 glycoprotein B ectodomain) (from UniProt P06437 31-730) (domain or fragment)” here?
Answer: 3

B1: HCMV gB706-CHis6 (HCMV strain AD169 glycoprotein B ectodomain, residues 25-706, C-terminal His6 tag) (domain or fragment)
chain: DPSSSTSHATSSTHNGSHTSRTTSAQTRSVYSQHVTSSEAVSHRANETIYNTTLKYGDVVGVNTTKYPYRVCSMAQGTDLIRFERNIICTSMKPINEDLDEGIMVVYKRNIVAHTFKVRVYQKVLTFRRSYAYIYTTYLLGSNTEYVAPPMWEIHHINKFAQCYSSYSRVIGGTVFVAYHRDSYENKTMQLIPDDYSNTHSTRYVTVKDQWHSRGSTWLYRETCNLNCMLTITTARSKYPYHFFATSTGDVVYISPFYNGTNRNASYFGENADKFFIFPNYTIVSDFGRPNAAPETHRLVAFLERADSVISWDIQDEKNVTCQLTFWEASERTIRSEAEDSYHFSSAKMTATFLSKKQEVNMSDSALDCVRDEAINKLQQIFNTSYNQTYEKYGNVSVFETSGGLVVFWQGIKQKSLVELERLANRSSLNITHRTRRSTSDNNTTHLSSMESVHNLVYAQLQFTYDTLRGYINRALAQIAEAWCVDQRRTLEVFKELSKINPSAILSAIYNKPIAARFMGDVLGLASCVTINQTSVKVLRDMNVKESPGRCYSRPVVIFNFANSSYVQYGQLGEDNEILLGNHRTEECQLPSLKIFIAGNSAYEYVDYLFKRMIDLSSISTVDSMIALDIDPLENTDFRVLELYSQKELRSSNVFDLEEIMREFNSYKQRVKYVEDKVVDPLPP
Question: Does B1 bind [2]?
Answer: binds

B2: HCMV gB706-4M (HCMV strain AD169 glycoprotein B ectodomain, residues 25-706, Y155G/I156H/Y157R/W240A) (domain or fragment)
chain: DPSSSTSHATSSTHNGSHTSRTTSAQTRSVYSQHVTSSEAVSHRANETIYNTTLKYGDVVGVNTTKYPYRVCSMAQGTDLIRFERNIICTSMKPINEDLDEGIMVVYKRNIVAHTFKVRVYQKVLTFRRSYAGHRTTYLLGSNTEYVAPPMWEIHHINKFAQCYSSYSRVIGGTVFVAYHRDSYENKTMQLIPDDYSNTHSTRYVTVKDQWHSRGSTALYRETCNLNCMLTITTARSKYPYHFFATSTGDVVYISPFYNGTNRNASYFGENADKFFIFPNYTIVSDFGRPNAAPETHRLVAFLERADSVISWDIQDEKNVTCQLTFWEASERTIRSEAEDSYHFSSAKMTATFLSKKQEVNMSDSALDCVRDEAINKLQQIFNTSYNQTYEKYGNVSVFETSGGLVVFWQGIKQKSLVELERLANRSSLNITHRTRRSTSDNNTTHLSSMESVHNLVYAQLQFTYDTLRGYINRALAQIAEAWCVDQRRTLEVFKELSKINPSAILSAIYNKPIAARFMGDVLGLASCVTINQTSVKVLRDMNVKESPGRCYSRPVVIFNFANSSYVQYGQLGEDNEILLGNHRTEECQLPSLKIFIAGNSAYEYVDYLFKRMIDLSSISTVDSMIALDIDPLENTDFRVLELYSQKELRSSNVFDLEEIMREFNSYKQRVKYVEDKVVDPLPP
modifications: N-linked glycosylation (mass difference of 22.9 kDa suggested that all 18 predicted N-linked glycosylation sites were glycosylated)
Question: How did the “stoichiometry N” value [3] turn out when B2 was run?
Answer: 3
